For the data set, the system named is T1, MKI-EGFP fusion protein.
T1 sequence: FPLKRHDKVDDLSK

Turning to AMP-activated kinase (AMPK), the “phosphorylation of acetyl-CoA carboxylase (ACC) by AMPK in rat hippocampal neurons, pACC (Ser79) antibody” value is recorded as “MKI-EGFP did not affect the phosphorylation of acetyl-CoA carboxylase (ACC) by AMP-activated kinase (AMPK)”.
For the substance “MARK4 (PAR-1/MARK kinases) acting on tau in rat hippocampal neurons”, the “phosphorylation of endogenous tau at the 12E8 sites in rat hippocampal neurons, Western blot” value was “expression of an MKI-GFP fusion protein in rat hippocampal neurons effectively attenuated MARK4-mediated phosphorylation of both endogenous tau (FIG. 3A) and transfected human tau at the 12E8 sites (FIG. 3B)”; the “phosphorylation of transfected HA-tagged human tau at the 12E8 sites in rat hippocampal neurons, immunostaining” value is “expression of an MKI-GFP fusion protein in rat hippocampal neurons effectively attenuated MARK4-mediated phosphorylation of both endogenous tau (FIG. 3A) and transfected human tau at the 12E8 sites (FIG. 3B)”.
